The text below walks through data of article PMC13371181, “A paracrine-to-autocrine shunt of GREM1 fuels colorectal cancer metastasis via ACVR1C” (Molecular Cancer, 2026).

As usually defined, the Kd is the free concentration of one partner at which half of the binding sites on the other are occupied at equilibrium, for simple one-to-one binding.

One assay addresses ACVR1C-ECD. Put plainly: MST binding of ACVR1C-ECD-Fc to GREM1-His or ACTIVIN B-His. On the set-up: species or system human. As to conditions: Monolith NT.115, ACVR1C-ECD-Fc 0–27.5 µM vs 50 nM red-fluorescently labeled His-protein, PBS pH 7.4, premium capillaries, n = 3 independent experiments, mean ± s.e.m. An excerpt: Expi293F cells were transfected with a pcDNA3.4-ACVR1C-ECD-Fc and pcDNA3.4-ACVR1C-ECD-Fc-double mutant (E85A/T101A) expression vector to produce the target protein, which was subsequently purified using a Protein G column. Briefly, the coding sequence (CDS) of the human ACVR1C extracellular domain (ACVR1C-ECD, NM_145259.3, residues 1–113) fused to an Fc tag was cloned into the pcDNA3.4 vector. Expi293F cells were transfected with this construct, the supernatant was harvested 5 days post transfection.
MST was carried out on a Monolith NT.115 instrument (NanoTemper Technologies GmbH, MO-L011). To evaluate ACVR1C-ECD or ACVR1C peptide or ACVR1C-ECD-double mutant (E85A/T101A) binding to GREM1-His or ACTIVIN B-His, an increasing concentration of purified ACVR1C-ECD-Fc protein (0–27.5 µM) or ACVR1C peptide (0–2.3 µM) or ACVR1C-ECD-double mutant (0–27.5 µM) was incubated with 50 nM red-fluorescently labeled (NanoTemper Technologies GmbH, MO-L011) GREM1-His protein (R&D, 5190-GR) or ACTIVIN B-His protein (SinoBiological, 10814-H08H). Experiments were carried out in a PBS buffer pH 7.4 using premium capillaries (NanoTemper Technologies GmbH, MO-K025).

The target in a further assay is FGFR1 (Homo sapiens) (UniProt P11362). As to conditions: cited from earlier work.
FGFR1 (Homo sapiens), sequence (P11362 22-376): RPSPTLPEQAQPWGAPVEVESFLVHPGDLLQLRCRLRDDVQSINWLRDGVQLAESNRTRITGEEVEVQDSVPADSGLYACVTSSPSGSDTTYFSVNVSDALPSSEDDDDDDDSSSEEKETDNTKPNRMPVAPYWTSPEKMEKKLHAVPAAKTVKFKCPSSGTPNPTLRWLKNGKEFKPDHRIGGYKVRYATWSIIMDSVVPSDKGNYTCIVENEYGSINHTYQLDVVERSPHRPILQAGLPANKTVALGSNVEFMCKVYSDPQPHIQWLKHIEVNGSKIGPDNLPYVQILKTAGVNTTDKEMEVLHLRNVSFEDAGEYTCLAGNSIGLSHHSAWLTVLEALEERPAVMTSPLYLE
Assay [1] concerns the target T1, His-tagged full-length GREM1 (recombinant human GREM1-His) (human, UniProt O60565 25-184, red fluorescent label (NanoTemper, MO-L011) in the MST assays).
T1 construct: also called recombinant GREM1; rhGREM1; source: bought: R&D, 5190-GR
T1 sequence (looked up): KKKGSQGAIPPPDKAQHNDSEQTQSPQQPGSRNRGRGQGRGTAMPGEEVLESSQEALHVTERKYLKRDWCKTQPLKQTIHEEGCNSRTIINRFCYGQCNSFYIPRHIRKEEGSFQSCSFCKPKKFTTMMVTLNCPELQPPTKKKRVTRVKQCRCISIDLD
Kind of assay: MST; Monolith NT.115; 50 nM red-fluorescently labelled GREM1-His or ACTIVIN B-His, unlabelled partner titrated (ACVR1C-ECD-Fc or double mutant 0–27.5 µM, ACVR1C peptide 0–2.3 µM); PBS pH 7.4; n = 3. As to conditions: both partners purified.

The target in the next assay is ACTIVIN B-His (UniProt P09529). The assay is described as above.
The subject of a further assay is ACVR1C. Put plainly: Co-immunoprecipitation of GREM1 and ACVR1C. It counts as binding, human. As to conditions: co-IP, truncation or point mutants, HCT116 cells. The method, then:
HCT116 cells were transfected with the indicated plasmids and lysed in NP40 lysis buffer (Beyotime, P0013F) supplemented with protease inhibitor cocktail (Thermo, 78446). Lysates were incubated with the indicated Anti-Flag nanobody magarose beads (Ktsm-life, KTSM1338), Anti-HA nanobody magarose beads (Ktsm-life, KTSM1335) or Anti-GFP nanobody magarose beads (Ktsm-life, KTSM1334) overnight at 4 °C. The protein complex was washed four times with the NP40 lysis buffer, eluted with 1×loading buffer (Beyotime, P0015) by boiling for 5 min, followed by mass spectrometry and immunoblotting with the indicated antibodies.
Protein was extracted from the cells with RIPA buffer (Beyotime, P0018) or NP40 lysis buffer (Beyotime, P0013F) and separated by SDS-PAGE, and transferred to polyvinylidene difluoride membranes. Primary antibodies against GREM1 (1:1,000, SinoBiological, 50016-R117), ACVR1C (1:1,000, Thermo, PA587475), Flag-tag (1:1,000, CST, 14793), HA-tag (1:1,000, CST, 3724), E-Cadherin (1:1,000, CST, 3195), β-Catenin (1:1,000, CST, 8480), ZEB1 (1:1,000, CST, 3396), Snail (1:1,000, CST, 3879), SMAD2/3 (1:1,000, CST, 8685), p-SMAD2/3 (1:1,000, CST, 8828), SMAD1 (1:1,000, CST, 6944), p-SMAD1/5/9 (1:1,000, CST, 13820), TGFβ (1:1,000, CST, 3709), TGFβR1 (0.3 µg/mL, R&D, AF3025), β-actin (1:5,000, Beyotime, AF0003) and GAPDH (1:5,000, Beyotime, AF0006) were used in this study. Peroxidase-conjugated secondary antibody (1:10,000, Cell Signaling Technology, 7074, 7076) was used and signal was visualized using an enhanced chemiluminescence assay (ECL, Thermo), according to the manufacturer’s protocol. Band intensity was quantified using Fiji (ImageJ) by grayscale analysis.

Assay [2] has as its system CRC cells (SW480, HCT116, and MC38). Kind of assay: GREM1 withdrawal assay, RT–qPCR and immunoblot. It counts as cell-based, human (SW480, mouse (MC38). As to conditions: rhGREM1 or rmGrem1 200 ng/mL 24 h, then GREM1-free medium 2 and 4 days. The procedure:
To determine whether tumor cells that have acquired signaling autonomy can sustain GREM1 expression in the absence of external stimulation, we performed a GREM1 withdrawal assay. CRC cells (SW480, HCT116, and MC38) were first pulsed with rhGREM1 or recombinant mouse GREM1 (rmGrem1) for 24 h to initiate the signaling response. The medium containing rhGREM1 or rmGrem1 was then thoroughly removed, replaced with fresh GREM1-free medium, and the cells were cultured for an additional 4 days. […] This persistent, self-sustaining expression supports our conclusion that the initial rhGREM1 or rmGrem1 stimulation triggers a positive feedback loop of GREM1 transcription within CRC cells.
Protein was extracted from the cells with RIPA buffer (Beyotime, P0018) or NP40 lysis buffer (Beyotime, P0013F) and separated by SDS-PAGE, and transferred to polyvinylidene difluoride membranes. […] Band intensity was quantified using Fiji (ImageJ) by grayscale analysis.
Total RNA was extracted using Trizol reagent (Invitrogen, 15596026). […] The SYBR Green Premix Pro Taq HS qPCR Kit (Accurate Biology, AG11701) was then used to quantify mRNA expression according to the manufacturer’s instructions. All results were calculated using the 2^−ΔΔCt method. […]
(In qPCR the cycle at which signal appears reflects the starting amount.)

Positions count from the first letter of the chain named. Names may count otherwise. “Also recorded” adds a separate entry of the source.

Regarding “ACTIVIN B: a known ligand of ACVR1C; ACTIVIN B-His protein (SinoBiological, 10814-H08H)”, at ACVR1C-ECD, binding was characterised by a dissociation constant (Kd) of 0.854 ± 0.127 µM.
On to GREM1 (from UniProt O60565), for which the Kd in the assay with FGFR1 (Homo sapiens) is 0.0106 µM.

B1: Fc-tagged ACVR1C extracellular domain (ACVR1C-ECD, AA1–113) (Fc fusion, human, UniProt Q8NER5-1 21-113, looked up)
chain: ELSPGLKCVCLLCDSSNFTCQTEGACWASVMLTNGKEQVIKSCVSLPELNAQVFCHSSNNVTKTECCFTDFCNNITLHLPTASPNAPKLGPME
notes: signal peptide in the construct; Vector pcDNA3.4; also called ACVR1C-ECD-Fc; recombinant human ACVR1C-ECD and Fc chimera protein; source: Expi293F, transfected, purified from supernatant (Protein G column, ion exchange)
For the molecule B1, the values for the dissociation constant (Kd) (in assay [1]; with ACTIVIN B-His) were 0.0677 µM and 0.854 µM, respectively.
As for TECCFTDFCNNITLHLPTA (peptide, UniProt Q8NER5 84-102, looked up, ACVR1C, human, residues 84–102) [ACVR1C peptide (amino acid residues 84–102 of ACVR1C)], in assay [1], the dissociation constant (Kd) was determined as 0.0923 µM.

B2: E85A: ACVR1C single mutant (protein, UniProt Q8NER5 21-493, looked up, variant E85A)
Activin receptor type-1C: ELSPGLKCVCLLCDSSNFTCQTEGACWASVMLTNGKEQVIKSCVSLPELNAQVFCHSSNNVTKTACCFTDFCNNITLHLPTASPNAPKLGPMELAIIITVPVCLLSIAAMLTVWACQGRQCSYRKKKRPNVEEPLSECNLVNAGKTLKDLIYDVTASGSGSGLPLLVQRTIARTIVLQEIVGKGRFGEVWHGRWCGEDVAVKIFSSRDERSWFREAEIYQTVMLRHENILGFIAADNKDNGTWTQLWLVSEYHEQGSLYDYLNRNIVTVAGMIKLALSIASGLAHLHMEIVGTQGKPAIAHRDIKSKNILVKKCETCAIADLGLAVKHDSILNTIDIPQNPKVGTKRYMAPEMLDDTMNVNIFESFKRADIYSVGLVYWEIARRCSVGGIVEEYQLPYYDMVPSDPSIEEMRKVVCDQKFRPSIPNQWQSCEALRVMGRIMRECWYANGAARLTALRIKKTISQLCVKEDCKA
On to B2, for which the “effect of deletion or mutation on GREM1–ACVR1C interaction” value (“effect of deletion or mutation” for short) is “significantly abrogated the GREM1–ACVR1C interaction” in the assay on ACVR1C and “impaired” in the assay on ACVR1C (listed as AA85 mutant (M2)).

B3: T101A: ACVR1C single mutant (protein)
chain: B2 Activin receptor type-1C with A65E, T81A
modifications: left off: Flag, end not stated, state not stated | GFP, end not stated, state not stated
notes: ACVR1C single mutant
Regarding B3, the entries for the “effect of deletion or mutation” value in the assay on ACVR1C and with ACVR1C (listed as AA101 mutant (M3) of ACVR1C) were “significantly abrogated the GREM1–ACVR1C interaction” and “impaired”, respectively.

B4: Q101A/T102A/T112A/N115A quadruple mutation in GREM1: GREM1 point mutant (protein)
chain: T1 sequence (looked up) with Q77A, T78A, T88A, N91A
modifications: left off: HA, end not stated, state not stated | mCherry, end not stated, state not stated
notes: GREM1 point mutant
On to B4, for which the “effect of deletion or mutation” value is recorded as “significantly abrogated the GREM1–ACVR1C interaction” in the assay on ACVR1C and “impaired” in the assay with ACVR1C (listed as AA101/102/112/115 mutant (M3) of GREM1).

B5: rmGrem1: recombinant mouse GREM1 (protein, UniProt O70326 25-184, looked up)
Gremlin-1: T1 sequence (looked up) with Q27P, N33T
As to B5, the “endogenous GREM1 expression after withdrawal” value in assay [2] is “not only maintained but in some cases further increased even after the withdrawal of exogenous GREM1; also recorded: maintained elevated endogenous GREM1 expression even after withdrawal of exogenous GREM1”.
